Experimental findings from patent US20220047716A1, “COMBINATION THERAPIES WITH ANTI-FOLATE RECEPTOR ANTIBODY CONJUGATES” (SUTRO BIOPHARMA, INC., priority 2018, published 2022) are described below.

The target in the test is human folate receptor alpha (hFolRα) on cells (human) (UniProt P15328). Kind of test: cell-based or functional assay.
Sequence of human folate receptor alpha (hFolRα) on cells (human) (P15328 25-234 limits assumed): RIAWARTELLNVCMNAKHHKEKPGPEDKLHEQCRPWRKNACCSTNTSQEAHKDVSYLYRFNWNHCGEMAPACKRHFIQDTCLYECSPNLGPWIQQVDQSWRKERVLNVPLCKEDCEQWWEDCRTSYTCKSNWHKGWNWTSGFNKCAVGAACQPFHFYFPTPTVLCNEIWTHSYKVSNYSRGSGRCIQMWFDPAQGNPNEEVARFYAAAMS

For “ADC Molecule 21 (IMGN853 surrogate, Mov19-sulfo-SPDB-DM4) (antibody)”, the fold shift of cell killing EC50 on Igrov1 cells on addition of naked antibody is 3 fold.
